{
  "source": "paper PMC10514269",
  "about": "“W546 stacking disruption traps the human porphyrin transporter ABCB6 in an outward-facing transient state” (Communications Biology, 2023)",
  "target": "the molecule itself",
  "test": "cryo-EM structure; detergent-purified protein (6 mg/mL) incubated with 100 μM CPIII, 2 mM MgCl2, 2 mM ATP and 2 mM sodium orthovanadate for 30 min at 22 °C; single-particle analysis",
  "data": [
    {"protein": "core region of human ABCB6 (residues 206-842, without TMD0) (domain or fragment, UniProt Q9NP58 206-842, looked up, Homodimer in the cryo-EM maps; also called hABCB6^core; ABCB6^core; not shown: eGFP, C-terminal, cleaved; 10×His, C-terminal, cleaved) APGLRPQSYTLQVHEEDQDVERSQVRSAAQQSTWRDFGRKLRLLSGYLWPRGSPALQLVVLICLGLMGLERALNVLVPIFYRNIVNLLTEKAPWNSLAWTVTSYVFLKFLQGGGTGSTGFVSNLRTFLWIRVQQFTSRRVELLIFSHLHELSLRWHLGRRTGEVLRIADRGTSSVTGLLSYLVFNVIPTLADIIIGIIYFSMFFNAWFGLIVFLCMSLYLTLTIVVTEWRTKFRRAMNTQENATRARAVDSLLNFETVKYYNAESYEVERYREAIIKYQGLEWKSSASLVLLNQTQNLVIGLGLLAGSLLCAYFVTEQKLQVGDYVLFGTYIIQLYMPLNWFGTYYRMIQTNFIDMENMFDLLKEETEVKDLPGAGPLRFQKGRIEFENVHFSYADGRETLQDVSFTVMPGQTLALVGPSGAGKSTILRLLFRFYDISSGCIRIDGQDISQVTQASLRSHIGVVPQDTVLFNDTIADNIRYGRVTAGNDEVEAAAQAAGIHDAIMAFPEGYRTQVGERGLKLSGGEKQRVAIARTILKAPGIILLDEATSALDTSNERAIQASLAKVCANRTTIVVAHRLSTVVNADQILVIKDGCIVERGRHEALLSRGGVYADMWQLQQGQEETSEDTKPQTMER", "values": [
      {"measurement": "binding result", "result": "binds"}
    ]},
    {"protein": "hABCB6^core-W546A mutant (domain or fragment, human, UniProt Q9NP58 206-842, looked up, Homodimer in the cryo-EM structures; Used in detergent micelles and in nanodiscs (porcine brain polar lipids, hApoA-I (Δ1-43) scaffold); source: also reconstituted into nanodiscs; not shown: eGFP, C-terminal, cleaved; 10×His, C-terminal, cleaved) APGLRPQSYTLQVHEEDQDVERSQVRSAAQQSTWRDFGRKLRLLSGYLWPRGSPALQLVVLICLGLMGLERALNVLVPIFYRNIVNLLTEKAPWNSLAWTVTSYVFLKFLQGGGTGSTGFVSNLRTFLWIRVQQFTSRRVELLIFSHLHELSLRWHLGRRTGEVLRIADRGTSSVTGLLSYLVFNVIPTLADIIIGIIYFSMFFNAWFGLIVFLCMSLYLTLTIVVTEWRTKFRRAMNTQENATRARAVDSLLNFETVKYYNAESYEVERYREAIIKYQGLEWKSSASLVLLNQTQNLVIGLGLLAGSLLCAYFVTEQKLQVGDYVLFGTYIIQLYMPLNAFGTYYRMIQTNFIDMENMFDLLKEETEVKDLPGAGPLRFQKGRIEFENVHFSYADGRETLQDVSFTVMPGQTLALVGPSGAGKSTILRLLFRFYDISSGCIRIDGQDISQVTQASLRSHIGVVPQDTVLFNDTIADNIRYGRVTAGNDEVEAAAQAAGIHDAIMAFPEGYRTQVGERGLKLSGGEKQRVAIARTILKAPGIILLDEATSALDTSNERAIQASLAKVCANRTTIVVAHRLSTVVNADQILVIKDGCIVERGRHEALLSRGGVYADMWQLQQGQEETSEDTKPQTMER", "values": [
      {"measurement": "stoichiometry N", "result": 2}
    ]}
  ]
}
